The record followed here is US20180312539A1, “METHODS FOR PREPARING HIGH THROUGHPUT PEPTIDOMIMETICS, ORALLY BIOAVAILABLE DRUGS AND COMPOSITIONS CONTAINING SAME” (University of Southern California, priority 2011, published 2018).

Where “and” joins values, the source holds several entries; their conditions need not be identical. Identical values can stand only once. *1 amine or outer side, *2 acyl side, *3 side chain or, on linkers, in order; H or OH if unused. Where a SMILES comes first, the peptide text is derived from it. Bridges are numbered along the chain shown (N, C = ends). Where no end group is shown, it is not given here. [ ]: non-standard residue; d: D form. The star is where a group is joined. 5FAM = O=C1OC2(c3ccc(O)cc3Oc3cc(O)ccc32)c2ccc(C(=O)*)cc21; Biotin = O=C1N[C@H]2[C@H](CS[C@H]2CCCCC(=O)*)N1; NMeW = CN[C@@H](Cc1c[nH]c2ccccc12)C(=O)O; Glutaryl = O=C(CCCC(=O)[*:2])[*:1]; NMeNva = CCC[C@H](NC)C(=O)O; NMeA = CN[C@@H](C)C(=O)O Some results are limits rather than exact numbers.

On the set-up of data set [1]: species or system C57BL6 mice. The settings on record: mouse, in vivo. How it is done: The following peptides were synthesized for oral administration: […](FAM) (SEQ ID NO: 14), […](FAM)DK(Palmitoleic acid) (SEQ ID NO: 15), and […](FAM) (SEQ ID NO: 16), wherein FAM is a lysine derivative containing fluorescein. All peptides were cyclized from the side chain to lysine to the N-terminus as previously described. Anesthetized C57BL6 mice had peptide administered at a dose of 10 mg/kg by oral gavage. After administration, mice were removed from isoflurane. At various time points, blood samples were taken by orbital bleeding as previously described. Peaks were normalized to a 15 minute time point from mice that had peptide administered by IV injection.
The following peptides were synthesized for oral administration: […](FAM) (SEQ ID NO: 14), […](FAM) (SEQ ID NO: 16), […](FAM)DK(biotin) (SEQ ID NO: 38), and […](FAM)DK(Palmitoleic acid) (SEQ ID NO: 15). All peptides were cyclized from the side chain to lysine to the N-terminus as previously described in Millward, S. W. et al. (2007) ACS Chem. Biol. 2:625. Anesthetized C57BL6 mice had peptide administered at a dose of 10 mgs/Kg by oral gavage. After administration, mice were removed from isoflurane. At various time points, blood samples were taken by orbital bleeding as previously described. Peaks were normalized to a 20 minute time point from mice that had peptide administered by IV injection. Area under the curve was analyzed by Graphpad 5.0.
In addition to accessing intracellular targets in cell culture, deriving a simple modification that would facilitate oral bioavailability of peptidic ligands would be greatly beneficial for therapeutic development. Intestinal absorption of both fatty acids and biotin is nearly 100% efficient. Zempleni, J. and Mock, D. M. (1999) The American Journal of Clinical Nutrition 69:504. […] Applicants synthesized a protease resistant peptide with the sequence […]-mod (designated SUPR peptide) (SEQ ID NO: 50), where A is N-methyl alanine, the peptide is cyclized from lysine to the N-terminus, and K(mod) is lysine with a modified sidechain including either biotin or palmitoleic acid. Palmitoleic acid is a monounsaturated fatty acid chosen for its ability to bind human serum albumin, and its low melting point allowing for more favorable solubility of conjugated peptides as compared to […] fatty acid conjugates. This peptide was administered to mice at a dose of 10 mg/kg by oral gavage. At various time points, blood was taken from the mice by orbital bleeding. After processing, fluorescence was quantified and compared to the maximum signal obtained by IV injection of peptide at the same dose.

The nature of the next data set: Human serum digests. Format: in vitro ADME. The settings on record: reconstituted human serum, 37° C. As for the experimental part:
Delipidated/lyophilized human serum was purchased from Thermo Scientific and reconstituted as per manufacturer's instructions. 250 nmoles of peptide in 50 μLs of sodium phosphate buffer (pH=8.0) with 10% DMSO was added to 1 mL of reconstituted serum and incubated at 37° C. 100 μL aliquots were taken at various time points and quenched in 300 μLs of acetonitrile. Samples were spun down and decanted to remove precipitate followed by dilution in water to 1.5 mLs. Samples were then analyzed by HPLC as described in the protease resistance experiment.
Delipidated/lyophilized human serum was purchased from Thermo Scientific and reconstituted as per manufacturer's instructions. 250 nmoles of peptide in 50 μL of sodium phosphate buffer (pH=8.0) with 10% DMSO was added to 1 mL of reconstituted serum and incubated at 37° C. 100 μL aliquots were taken at various time points and quenched in 300 μL of acetonitrile. Samples were spun down and decanted to remove precipitate followed by dilution in water to 1.5 mLs.
The human serum and human microsome stability of the Gαi1 binding SUPR peptide ([…] (SEQ ID NO: 7)) were compared to the peptides ability to bind to Her-2. Beginning with the human serum analysis, peptides were digested with 95% human serum at 37° C. Analysis was performed by HPLC. […] Therefore, intact peptide is only completely unmodified peptide. Digestions of SUPR, HMP, and PMP are show have lives very similar to SUPR. Digestion of PMP2 is in progress. Without being bound by theory, Applicants theorize that the fitting for HMP may have produced an artificially low half-life.

Data set [2] is described as follows: PAMPA (parallel artificial membrane permeability assay). Format: in vitro ADME. The following applies: for Log Pe of peptide (biotinylated): biotin-labeled peptide (number + B), non-reducible biotin; for Log Pe of peptide (biotinylated) / Log Pe of peptide: PBS pH 7.4, 24 hrs; for Log Pe of peptide: unmodified peptide, room temperature; for Log Pe: peptide conjugated to biotin containing a reducible disulfide (RB), acceptor well reducing (10 mM DTT). How it is done:
PAMPA assays were set up following manufacturer's instructions. Briefly, 1% phosphatidyl choline (Sigma) was dissolved in dodecane (Sigma) at 65° C. for 3 min. The membrane was applied to each well as per manufacturer's instructions. […] 100 μL of sample was put into each donor well. The acceptor wells contained 300 μL of a 5% DMSO in PBS solution. Passive diffusion was allowed to occur at room temperature for 24 hrs. […] Absorbance at 215 nm was monitored. The area under the peptide peak was integrated.
The acceptor well contained 10 mM DTT as a reducing agent. Data was collected after 6, 12 and 24 hrs. Absorbance at 280 nm was analyzed. The following formula was used to calculate Log Pe: […]
Applicants employed a parallel artificial membrane permeability assay (PAMPA) that will allow for the rapid screening of peptide passive diffusion across a phospholipid bilayer. (Schmidt, et al. (2003) J. Millipore Corporation Application Note AN1729EN00.). In this assay, two chambers are separated by a phospholipid bilayer supported on an inert membrane. Applicants chose to initially focus Applicants examination on peptide ligands developed to bind with high affinity to the heterotrimeric G-proteins Gαi1*GDP and Gα12*GDP. Ja, W. W., et al. (2004) Biochemistry 43:9265; Millward, S. W., et al. (2007) ACS Chem. Biol. 2:625; Fiacco, S. et al. (2008) ChemBioChem 9:2200. These ligands included variations in sequence, size, overall charge, and polarity as well as comparing linear and cyclic peptides, end and biotinylation. […] According to classical methods of increasing permeability. Pinski, C. A., et al. (2001) Advanced Drug Delivery Reviews 46:3. Applicants postulated that the removal of hydrogen bond donors by N-methylation should further increase the permeability of this peptide.
On the technique in general: In PAMPA a lipid-coated filter parts donor from acceptor wells.

The next data set deals with T1, chymotrypsin (Bos taurus, UniProt P00766).
T1 construct: purchased Sigma
Put plainly: Protease resistance experiment, chymotrypsin digest. Format: in vitro ADME. How it is done:
Immobilized chymotrypsin and proteinase K purchased from Sigma.
Protease resistance enhancement was then tested.
Towards that end, three peptides were synthesized. […] The effects were dramatic and surprising.

The next data set concerns the target proteinase K (Parengyodontium album, UniProt P06873). The following applies: immobilized proteinase K, 4° C; for Cyc t1/2: cyclic peptide; for Lin t1/2: linear peptide. How it is done:
Immobilized chymotrypsin and proteinase K purchased from Sigma. 250 nmoles of peptide in DMSO were added to 50 mM sodium phosphate buffer (pH=8.0) with a final DMSO concentration of 2%. […] The graph was generated by fitting the data to a one phase exponential decay equation (GraphPad Prism 5.0).
Protease resistance enhancement was then tested. The simplest solution for enhancing protease resistance would be the removal of amino acids recognized by protease K and chymotrypsin.
Next the role of each of the N-methyl alanines was analyzed independently. […] For example sequence modifications, including N-methylation would be accomplished one amino acid at a time, walking the peptide from low protease stability to high stability. Whether this is a viable approach for making a peptide like SUPR was investigated. Towards that end, Applicants walked back from SUPR peptide to something closer to cycGIBP, and to determine if there was a gradual decrease in protease resistance. Towards that end, three peptides were synthesized. Two of them contained only one NMA (alanine was substituted for NMA), and the other had no NMA. It was hypothesized that if one could walk back to cycGIBP, then one would expect the loss of a single N-methyl to have some effect on reducing protease resistance, but to still be better than cycGIBP.

Chain of proteinase K (P06873 106-384): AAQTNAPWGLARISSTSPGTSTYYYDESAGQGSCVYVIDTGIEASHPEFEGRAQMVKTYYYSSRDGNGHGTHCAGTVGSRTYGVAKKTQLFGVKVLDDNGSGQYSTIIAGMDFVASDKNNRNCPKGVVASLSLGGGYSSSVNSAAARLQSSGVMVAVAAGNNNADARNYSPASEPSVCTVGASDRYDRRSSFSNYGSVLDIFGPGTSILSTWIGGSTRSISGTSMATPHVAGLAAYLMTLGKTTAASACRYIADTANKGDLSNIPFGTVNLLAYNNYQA

As a reminder, the bioavailability is the share of a dose that reaches the circulation, judged against a reference dose that is usually intravenous. Lower therefore signals poor availability. Compound `CSCC[C@@H]1NC(=O)CCCC(=O)NCCCC[C@@H](C(=O)N[C@@H](CCCCNC(=O)c2ccc3c(c2)C(=O)OC32c3ccc(O)cc3Oc3cc(O)ccc32)C(=O)N[C@H](CCCCNC(=O)CCCC[C@@H]2SC[C@@H]3NC(=O)N[C@@H]32)C(=O)O)NC(=O)[C@H](CO)NC(=O)[C@H](Cc2c[nH]c3ccccc23)NC(=O)[C@H](CCC(N)=O)NC(=O)[C@H](C)N(C)C(=O)[C@H](Cc2ccc(O)cc2)NC(=O)[C@H](CCC(=O)O)NC(=O)[C@H](Cc2ccc(O)cc2)NC(=O)[C@H](C)N(C)C(=O)[C@H](Cc2ccc(O)cc2)NC(=O)[C@H](Cc2ccccc2)NC1=O` [biotinylated peptide] (MFY[NMeA]YEY[NMeA]QWSKK(5FAM)[dK](Biotin)-OH; linker N-12 via Glutaryl; C-terminus assumed) yielded a bioavailability in data set [1] (10 mg/kg) of 9.4%. Besides, in data set [1] (po), the “time of maximal uptake” value turned out to be 3 h. The oral uptake efficiency in data set [1] (po, 10 mg/kg) is 6.4%.

In general, half-life refers to the time needed for the level to fall by half in the phase considered. For `CC[C@H](C)[C@H](NC(=O)[C@@H](N)CCSC)C(=O)N[C@H](C(=O)N[C@@H](Cc1c[nH]c2ccccc12)C(=O)N[C@@H](Cc1ccc(O)cc1)C(=O)N[C@@H](CCC(=O)O)C(=O)N[C@@H](Cc1ccccc1)C(=O)N[C@H](C(=O)N[C@@H](C)C(=O)NCC(=O)N[C@H](C(=O)N[C@@H](CCCCN)C(N)=O)[C@@H](C)O)C(C)C)[C@@H](C)O` [linGIBP, reference compound] (H-MITWYEFVAGTK-NH2), the half-life in the data set “Human serum digests” was around 504 s.

Turning to “(N-MeNva)ITWYEFVAGTK ([NMeNva]ITWYEFVAGTK(Biotin)-NH2; N-terminus assumed; SMILES CCC[C@H](NC)C(=O)N[C@H](C(=O)N[C@H](C(=O)N[C@@H](Cc1c[nH]c2ccccc12)C(=O)N[C@@H](Cc1ccc(O)cc1)C(=O)N[C@@H](CCC(=O)O)C(=O)N[C@@H](Cc1ccccc1)C(=O)N[C@H](C(=O)N[C@@H](C)C(=O)NCC(=O)N[C@H](C(=O)N[C@@H](CCCCNC(=O)CCCC[C@@H]1SC[C@@H]2NC(=O)N[C@@H]21)C(N)=O)[C@@H](C)O)C(C)C)[C@@H](C)O)[C@@H](C)CC) [Peptide 9]”, in data set [2], the “Log Pe of peptide (biotinylated)” value is listed as −7.4 ± −0.1 and the “Log Pe of peptide” value is reported as −7.0 ± −0.1.

On to “Cyclo-MITWYEFVAGTK (not fully specified (C-terminus, bridges); printed as Cyclo-MITWYEFVAGTK; also: cyclized, ring closure not given here) [Peptide 8]”, for which, in data set [2], the “Log Pe of peptide (biotinylated)” value is −6.5 and −6.5 ± −0.0; the “Log Pe” value is recorded as −5.9; the “Log Pe of peptide” value was −8.2 ± −0.2.

Regarding MFYAYEYAQWSK, in the data set with chymotrypsin, the “Cyc t1/2” value was below 12 s and the “Lin t1/2” value is below 12 s. Also, in the data set with proteinase K, the “Cyc t1/2” value was below 12 s and the “Lin t1/2” value is below 12 s.

Take MITWYEFVAGTK [Peptide 7]: in data set [2], the “Log Pe of peptide (biotinylated)” value was −6.6 ± −0.1 and the “Log Pe of peptide” value is reported as −7.8 ± −0.1.

As to MITWYEFVAGTK [reference compound], in the data set with chymotrypsin, the “Cyc t1/2” value was 126 s and the “Lin t1/2” value was found to be 19.8 s. In addition, in the data set with proteinase K, the “Cyc t1/2” value came to 60 s and the “Lin t1/2” value is below 12 s.

As to “MRLVWIVRSRHFGPRLRMAK (MRLVWIVRSRHFGPRLRMAK(Biotin)-NH2; N-terminus assumed; SMILES CC[C@H](C)[C@H](NC(=O)[C@H](Cc1c[nH]c2ccccc12)NC(=O)[C@@H](NC(=O)[C@H](CC(C)C)NC(=O)[C@H](CCCNC(=N)N)NC(=O)[C@@H](N)CCSC)C(C)C)C(=O)N[C@H](C(=O)N[C@@H](CCCNC(=N)N)C(=O)N[C@@H](CO)C(=O)N[C@@H](CCCNC(=N)N)C(=O)N[C@@H](Cc1c[nH]cn1)C(=O)N[C@@H](Cc1ccccc1)C(=O)NCC(=O)N1CCC[C@H]1C(=O)N[C@@H](CCCNC(=N)N)C(=O)N[C@@H](CC(C)C)C(=O)N[C@@H](CCCNC(=N)N)C(=O)N[C@@H](CCSC)C(=O)N[C@@H](C)C(=O)N[C@@H](CCCCNC(=O)CCCC[C@@H]1SC[C@@H]2NC(=O)N[C@@H]21)C(N)=O)C(C)C) [Peptide 11]”, the “Log Pe of peptide (biotinylated)” value in data set [2] is on record as −6.0 ± −0.1.

On to “MSQTKRLDDQLYWWEYL (Biotin-MSQTKRLDDQLYWWEYL) [Peptide 10]”, for which, in data set [2], the “Log Pe of peptide (biotinylated)” value is −6.2 and −6.2 ± −0.0; the “Log Pe” value is −4.8; the “Log Pe of peptide” value is on record as −8.4 ± −0.1. For the same compound, the “fold increase in peptide delivery” value in data set [2] (reducible vs nonlabile biotin conjugate) was determined as 16 fold.

As for “NNNNNDKLY(N-MeW)WEFL (Biotin-NNNNNDKLY[NMeW]WEFL) [Peptide 6]”, in data set [2], the “Log Pe of peptide (biotinylated)” value is −6.6 ± −0.1 and the “Log Pe of peptide” value was above −9.0.
